This test deals with human C3b (CompTech) (human). In words: SPR. Background: In SPR one partner is held on a chip, and binding of the other changes the refractive index at the surface.
Sequence of human C3b (CompTech) (human) (chain, as listed by the source, chain 1 of 2): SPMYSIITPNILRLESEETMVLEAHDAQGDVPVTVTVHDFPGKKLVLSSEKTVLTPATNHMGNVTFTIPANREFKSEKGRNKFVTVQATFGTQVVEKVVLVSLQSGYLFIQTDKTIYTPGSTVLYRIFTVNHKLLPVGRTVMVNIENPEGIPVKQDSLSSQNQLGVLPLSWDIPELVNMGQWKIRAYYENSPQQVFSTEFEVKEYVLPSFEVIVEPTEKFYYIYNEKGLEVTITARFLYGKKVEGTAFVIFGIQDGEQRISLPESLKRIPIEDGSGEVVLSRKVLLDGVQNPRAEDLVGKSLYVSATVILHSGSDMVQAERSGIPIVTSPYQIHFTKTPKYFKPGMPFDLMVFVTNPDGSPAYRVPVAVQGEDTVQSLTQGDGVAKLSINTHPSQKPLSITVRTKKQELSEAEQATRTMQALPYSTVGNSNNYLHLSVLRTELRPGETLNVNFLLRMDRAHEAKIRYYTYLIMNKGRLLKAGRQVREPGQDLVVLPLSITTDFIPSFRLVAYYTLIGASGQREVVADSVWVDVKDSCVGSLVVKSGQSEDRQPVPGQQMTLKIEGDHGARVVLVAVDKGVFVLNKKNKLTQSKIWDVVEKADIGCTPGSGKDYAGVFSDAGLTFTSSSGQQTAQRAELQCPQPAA
Sequence of human C3b (CompTech) (human) (chain, as listed by the source, chain 2 of 2): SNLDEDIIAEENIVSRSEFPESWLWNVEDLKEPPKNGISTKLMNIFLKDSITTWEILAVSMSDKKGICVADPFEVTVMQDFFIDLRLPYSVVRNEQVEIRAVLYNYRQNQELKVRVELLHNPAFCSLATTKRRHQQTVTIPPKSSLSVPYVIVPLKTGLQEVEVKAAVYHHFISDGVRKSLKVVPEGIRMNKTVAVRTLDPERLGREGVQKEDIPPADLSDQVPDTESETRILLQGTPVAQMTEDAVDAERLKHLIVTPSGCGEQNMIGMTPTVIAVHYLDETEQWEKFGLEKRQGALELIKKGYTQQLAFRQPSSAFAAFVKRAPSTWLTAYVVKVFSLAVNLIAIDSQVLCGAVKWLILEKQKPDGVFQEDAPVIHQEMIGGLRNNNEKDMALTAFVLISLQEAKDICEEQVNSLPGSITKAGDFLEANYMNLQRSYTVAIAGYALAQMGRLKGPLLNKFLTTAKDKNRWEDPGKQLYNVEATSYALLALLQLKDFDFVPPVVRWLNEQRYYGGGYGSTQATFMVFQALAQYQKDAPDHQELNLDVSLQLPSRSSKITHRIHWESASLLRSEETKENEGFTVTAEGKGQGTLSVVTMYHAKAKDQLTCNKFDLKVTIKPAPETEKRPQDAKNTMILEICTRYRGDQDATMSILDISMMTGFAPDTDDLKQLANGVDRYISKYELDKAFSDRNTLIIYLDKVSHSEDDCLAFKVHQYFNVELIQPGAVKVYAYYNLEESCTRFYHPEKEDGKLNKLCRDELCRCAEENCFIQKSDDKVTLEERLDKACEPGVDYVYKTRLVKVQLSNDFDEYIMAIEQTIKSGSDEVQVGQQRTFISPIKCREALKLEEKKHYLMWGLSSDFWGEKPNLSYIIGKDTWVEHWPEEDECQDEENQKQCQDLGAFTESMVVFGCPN

B1: FH1-4 WT (complement factor H CCPs 1-4, wild type) (domain or fragment)
chain: EDCNELPPRRNTEILTGSWSDQTYPEGTQAIYKCRPGYRSLGNVIMVCRKGEWVALNPLRKCQKRPCGHPGDTPFGTFTLTGGNVFEYGVKAVYTCNEGYQLLGEINYRECDTDGWTNDIPICEVVKCLPVTAPENGKIVSSAMEPDREYHFGQAVRFVCNSGYKIEGDEEMHCSDDGFWSKEKPKCVEISCKSPDVINGSPISQKIIYKENERFQYKCNMGYEYSERGDAVCTESGWRPLPSCE
Consider B1, for which the Kd (usually the constant that tells how readily two partners part at equilibrium) amounted to 18.1 µM.

The values above are taken from paper PMC7840601 (2020).
